# Measurements from US10745460B2, “Peptides and combination of peptides for use in immunotherapy against various tumors” (Immatics Biotechnologies GmbH, priority 2015, dated 2020).
# Molecular target: HLA-A*02:01 (Homo sapiens, UniProt P04439, D140Y/D185E/D98H/E176V/E277Q/G131W/G231S/I119V/I121R/I166T/I218V/L300P/L318F/N151K/N90K/P208A/P217A/Q86G/Q94H/R138H/R169H/T345S)
# Assay: MHC binding assay: UV-ligand exchange with β2m ELISA (peptide exchange yield)
# Conditions: binding to HLA-A*02:01 evaluated by peptide exchange yield (UV-ligand exchange, β2m ELISA)
# From the text: Candidate peptides for T cell based therapies according to the present invention were further tested for their MHC binding capacity (affinity). The individual peptide-MHC complexes were produced by UV-ligand exchange, where a UV-sensitive peptide is cleaved upon UV-irradiation, and exchanged with the peptide of interest as analyzed. Only peptide candidates that can effectively bind and stabilize the peptide-receptive MHC molecules prevent dissociation of the MHC complexes. To determine the yield of the exchange reaction, an ELISA was performed based on the detection of the light chain (β2m) of stabilized MHC complexes. The assay was performed as generally described in Rodenko et al. (Rodenko et al., 2006).
# 96 well MAXISorp plates (NUNC) were coated over night with 2 ug/ml streptavidin in PBS at room temperature, washed 4× and blocked for 1 h at 37° C. in 2% BSA containing blocking buffer. Refolded HLA-A*02:01/MLA-001 monomers served as standards, covering the range of 15-500 ng/ml. Peptide-MHC monomers of the UV-exchange reaction were diluted 100 fold in blocking buffer. Samples were incubated for 1 h at 37° C., washed four times, incubated with 2 ug/ml HRP conjugated anti-β2m for 1 h at 37° C., washed again and detected with TMB solution that is stopped with […]. Absorption was measured at 450 nm. Candidate peptides that show a high exchange yield (preferably higher than 50%, most preferred higher than 75%) are generally preferred for a generation and production of antibodies or fragments thereof, and/or T cell receptors or fragments thereof, as they show sufficient avidity to the MHC molecules and prevent dissociation of the MHC complexes.
row,Peptide exchange,Substance
1,++++ (≥75% = ++++),1 (KLQEKIQEL; listed as Homo sapiens) [compound 1]
2,+++ (≥50 = +++),3 (RVIDDSLVVGV; listed as Homo sapiens) [compound 3]
3,+++ (≥50 = +++),4 (VLFGELPAL; listed as Homo sapiens) [compound 4]
4,+++ (≥50 = +++),5 (GLVDIMVHL; listed as Homo sapiens) [compound 5]
5,++++ (≥75% = ++++),6 (FLNAIETAL; listed as Homo sapiens) [compound 6]
6,+++ (≥50 = +++),7 (ALLQALMEL; listed as Homo sapiens) [compound 7]
7,+++ (≥50 = +++),9 (SLITGQDLLSV; listed as Homo sapiens) [compound 9]
8,+++ (≥50 = +++),10 (QLIEKNWLL; listed as Homo sapiens) [compound 10]
9,+++ (≥50 = +++),11 (LLDPKTIFL; listed as Homo sapiens) [compound 11]
10,+++ (≥50 = +++),12 (RLLDPKTIFL; listed as Homo sapiens) [compound 12]
11,+++ (≥50 = +++),13 (RLHDENILL; listed as Homo sapiens) [compound 13]
12,+++ (≥50 = +++),14 (YTFSGDVQL; listed as Homo sapiens) [compound 14]
13,+++ (≥50 = +++),16 (SLADLSLLL; listed as Homo sapiens) [compound 16]
14,++++ (≥75% = ++++),17 (GLLPSAESIKL; listed as Homo sapiens) [compound 17]
15,++ (≥20% = ++),18 (KTASINQNV; listed as Homo sapiens) [compound 18]
16,++ (≥20% = ++),19 (KVFELDLVTL; listed as Homo sapiens) [compound 19]
17,++ (≥20% = ++),20 (ALVEKGEFAL; listed as Homo sapiens) [compound 20]
18,+++ (≥50 = +++),21 (YLMDDFSSL; listed as Homo sapiens) [compound 21]
19,+++ (≥50 = +++),22 (LMYPYIYHV; listed as Homo sapiens) [compound 22]
20,+++ (≥50 = +++),23 (ALLSPLSLA; listed as Homo sapiens) [compound 23]
21,+++ (≥50 = +++),24 (KVWSDVTPL; listed as Homo sapiens) [compound 24]
22,+++ (≥50 = +++),25 (LLWGHPRVALA; listed as Homo sapiens) [compound 25]
23,+++ (≥50 = +++),26 (VLDGKVAVV; listed as Homo sapiens) [compound 26]
24,+++ (≥50 = +++),27 (GLLGKVTSV; listed as Homo sapiens) [compound 27]
25,++ (≥20% = ++),28 (IKVTDPQLLEL; listed as Homo sapiens) [compound 28]

row,Peptide exchange,Substance
1,++ (≥20% = ++),29 (KMISAIPTL; listed as Homo sapiens) [compound 29]
2,+++ (≥50 = +++),30 (IITEVITRL; listed as Homo sapiens) [compound 30]
3,+++ (≥50 = +++),31 (GLLETTGLLAT; listed as Homo sapiens) [compound 31]
4,++ (≥20% = ++),33 (TLDRNSLYV; listed as Homo sapiens) [compound 33]
5,+++ (≥50 = +++),34 (TLNTLDINL; listed as Homo sapiens) [compound 34]
6,++ (≥20% = ++),35 (VIIKGLEEI; listed as Homo sapiens) [compound 35]
7,+++ (≥50 = +++),36 (TVLQELINV; listed as Homo sapiens) [compound 36]
8,++ (≥20% = ++),37 (QIVELIEKI; listed as Homo sapiens) [compound 37]
9,++ (≥20% = ++),38 (VLQQESNFL; listed as Homo sapiens) [compound 38]
10,+++ (≥50 = +++),39 (YLEDGFAYV; listed as Homo sapiens) [compound 39]
11,+++ (≥50 = +++),40 (KIWEELSVLEV; listed as Homo sapiens) [compound 40]
12,+++ (≥50 = +++),41 (IVTEIISEI; listed as Homo sapiens) [compound 41]
13,++ (≥20% = ++),42 (KQMSISTGL; listed as Homo sapiens) [compound 42]
14,+++ (≥50 = +++),44 (AVFNLVHVV; listed as Homo sapiens) [compound 44]
15,+++ (≥50 = +++),45 (FLPVSVVYV; listed as Homo sapiens) [compound 45]
16,+++ (≥50 = +++),47 (GLNGFNVLL; listed as Homo sapiens) [compound 47]
17,+++ (≥50 = +++),48 (KISDFGLATV; listed as Homo sapiens) [compound 48]
18,++ (≥20% = ++),49 (KLIGNIHGNEV; listed as Homo sapiens) [compound 49]
19,+++ (≥50 = +++),50 (ILLSVLHQL; listed as Homo sapiens) [compound 50]
20,++ (≥20% = ++),51 (LDSEALLTL; listed as Homo sapiens) [compound 51]
21,++ (≥20% = ++),52 (TIGIPFPNV; listed as Homo sapiens) [compound 52]
22,+ (≥10% = +),53 (AQHLSTLLL; listed as Homo sapiens) [compound 53]
23,+++ (≥50 = +++),54 (YLVPGLVAA; listed as Homo sapiens) [compound 54]
24,+++ (≥50 = +++),55 (HLFDKIIKI; listed as Homo sapiens) [compound 55]
25,++ (≥20% = ++),57 (TLYPGRFDYV; listed as Homo sapiens) [compound 57]

row,Peptide exchange,Substance
1,+++ (≥50 = +++),58 (HLLGEGAFAQV; listed as Homo sapiens) [compound 58]
2,+++ (≥50 = +++),59 (ALADGIKSFLL; listed as Homo sapiens) [compound 59]
3,+++ (≥50 = +++),60 (YLFSQGLQGL; listed as Homo sapiens) [compound 60]
4,+++ (≥50 = +++),61 (ALYPKEITL; listed as Homo sapiens) [compound 61]
5,+++ (≥50 = +++),62 (SLVENIHVL; listed as Homo sapiens) [compound 62]
6,+++ (≥50 = +++),63 (KLLPMVIQL; listed as Homo sapiens) [compound 63]
7,++ (≥20% = ++),64 (SLYAGSNNQV; listed as Homo sapiens) [compound 64]
8,++ (≥20% = ++),65 (SLSEKSPEV; listed as Homo sapiens) [compound 65]
9,++ (≥20% = ++),66 (AMFPDTIPRV; listed as Homo sapiens) [compound 66]
10,+++ (≥50 = +++),67 (FLIENLLAA; listed as Homo sapiens) [compound 67]
11,+++ (≥50 = +++),68 (QLMNLIRSV; listed as Homo sapiens) [compound 68]
12,++ (≥20% = ++),69 (LKVLKADVVL; listed as Homo sapiens) [compound 69]
13,++ (≥20% = ++),70 (GLTEKTVLV; listed as Homo sapiens) [compound 70]
14,++ (≥20% = ++),71 (HMSGKLTNV; listed as Homo sapiens) [compound 71]
15,++ (≥20% = ++),72 (VLSTRVTNV; listed as Homo sapiens) [compound 72]
16,++ (≥20% = ++),74 (GLAFLPASV; listed as Homo sapiens) [compound 74]
17,+++ (≥50 = +++),75 (ALLDGALQL; listed as Homo sapiens) [compound 75]
18,+++ (≥50 = +++),76 (FTAEFLEKV; listed as Homo sapiens) [compound 76]
19,+++ (≥50 = +++),77 (ALYGNVQQV; listed as Homo sapiens) [compound 77]
20,++ (≥20% = ++),79 (TVLEEIGNRV; listed as Homo sapiens) [compound 79]
21,+++ (≥50 = +++),80 (VLTGQVHEL; listed as Homo sapiens) [compound 80]
22,++ (≥20% = ++),81 (ILAEEPIYI; listed as Homo sapiens) [compound 81]
23,+++ (≥50 = +++),82 (ILAEEPIYIRV; listed as Homo sapiens) [compound 82]
24,++ (≥20% = ++),83 (GLLENSPHL; listed as Homo sapiens) [compound 83]
